Source: the supplement of paper PMC7877785
± gives the uncertainty stated by the source.

Experiment: self-splicing fitness, log relative to wild type (ln ratio); higher = more splicing; Tetrahymena group I intron in knt gene, E. coli kanamycin selection, DiMSum; sequences stand for … in CUCUCU…GGAGGGAAAAGUUAUCAGGCAUGCACCUGGUAGCUAGUCUUUAAACCAAUAGAUUGCAUCGGUUUAAAAGGCAAGACCGUCAAAUUGCGGGAAAGGGGUCAACAGCCGUUCAGUACCAAGUCUCAGGGGAAACUUUGAGAUGGCCUUGCAAAGGGUAUGGUAAUAAGCUGACGGACAUGGUCCUAACCACGCAGCCAAGUCCUAAGUCAACAGAUCUUCUGUUGAUAUGGAUGCAGUUCACAGACUAAAUGUCGGUCGGGGAAGAUGUAUUCUUCUCAUAAGAUAUAGUCGGACCUCUCCUUAAUGGGAGCUAGCGGAUGAAGUGAUGCAACACUGGAGCCGCUGGGAACUAAUUUGUAUGCGAAAGUAUAUUGAUUAGUUUUGGAGUACUCGUGGUCG
Outline: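 Fitness was computed with DiMSum as the error-weighted combination of replicate fold changes, kanamycin versus none, each normalised to wild type. The library randomised all eight intron nucleotides of the P1ex region, with the intron placed in the knt kanamycin-resistance gene on pET-22b(+) in E. coli BL21(DE3). Six replicate transformations were grown overnight at 37°C or 30°C on LB agar with or without 25 μg/mL kanamycin, plus 100 μg/mL carbenicillin, 50 μM IPTG and 0.2% rhamnose. Pooled colonies were amplicon-sequenced on an Illumina HiSeq 2500.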

Row | Sequence | self-splicing fitness (ln) (30 °C) | self-splicing fitness (ln) (37 °C)
1 | AUGGAGCAAUAUUACGGGAU | -3.03 ± 0.22 | -0.546 ± 0.19
2 | AUGGAGCAAUAUUACGGUCU | -1.54 ± 0.14 | -2.04 ± 0.21
3 | AUGGAGCAAUAUUACGUCGC | -2.11 ± 0.47 | -1.78 ± 0.48
4 | AUGGAGCAAUAUUACGUGAC | -1.88 ± 0.22 | -2.11 ± 0.28
5 | AUGGAGCAAUAUUACGUGAU | -2.73 ± 0.088 | -0.769 ± 0.08
6 | AUGGAGCAAUAUUACGUGUC | -4.57 ± 0.46 | -2.71 ± 0.28
7 | AUGGAGCAAUAUUACGUUCC | -2.13 ± 0.33 | –
8 | AUGUAGCAAUAUUACGAACA | -0.529 ± 0.14 | 0.476 ± 0.15
9 | AUGUAGCAAUAUUACGACGA | -0.828 ± 0.11 | 0.039 ± 0.14
10 | AUGUAGCAAUAUUACGACGG | -2.09 ± 0.18 | -1.5 ± 0.17
11 | AUGUAGCAAUAUUACGAGUU | -1.68 ± 0.11 | -0.948 ± 0.11
12 | AUGUAGCAAUAUUACGAUGG | -3.4 ± 0.25 | -2.26 ± 0.26
13 | AUGUAGCAAUAUUACGAUUA | -0.6 ± 0.14 | 0.00536 ± 0.13
14 | AUGUAGCAAUAUUACGCCUC | -2.83 ± 0.41 | -1.61 ± 0.32
15 | AUGUAGCAAUAUUACGCGAA | -0.976 ± 0.088 | -1.04 ± 0.13
16 | AUGUAGCAAUAUUACGGCUU | 0.168 ± 0.095 | 0.71 ± 0.12
17 | AUGUAGCAAUAUUACGGGGU | -2.77 ± 0.23 | -3.12 ± 0.3
18 | AUGUAGCAAUAUUACGGUCU | -0.562 ± 0.096 | -0.014 ± 0.1
19 | AUGUAGCAAUAUUACGUAUU | -3.48 ± 0.21 | -1.44 ± 0.16
20 | AUGUAGCAAUAUUACGUCGA | -3.98 ± 0.26 | -2.06 ± 0.18
21 | AUGUAGCAAUAUUACGUCGC | – | -2.35 ± 0.46
22 | AUUAAGCAAUAUUACGACGC | -0.389 ± 0.11 | 0.175 ± 0.14
23 | AUUAAGCAAUAUUACGAGCC | – | -1.69 ± 0.28
24 | AUUAAGCAAUAUUACGAUAU | -1.2 ± 0.081 | -0.415 ± 0.096
25 | AUUAAGCAAUAUUACGAUCU | 0.226 ± 0.12 | -0.0178 ± 0.16
26 | AUUAAGCAAUAUUACGCAAG | -1.32 ± 0.14 | -1.27 ± 0.16

Row | Sequence | self-splicing fitness (ln) (30 °C) | self-splicing fitness (ln) (37 °C)
27 | AUUAAGCAAUAUUACGCAGC | -3.06 ± 0.22 | -2.72 ± 0.39
28 | AUUAAGCAAUAUUACGCCAG | -2.09 ± 0.15 | -1.51 ± 0.22
29 | AUUAAGCAAUAUUACGCCGA | -1.23 ± 0.26 | 0.0906 ± 0.26
30 | AUUAAGCAAUAUUACGCCGU | -0.62 ± 0.1 | -0.369 ± 0.14
31 | AUUAAGCAAUAUUACGGAGU | -1.69 ± 0.14 | -0.962 ± 0.15
32 | AUUAAGCAAUAUUACGGCAA | -0.363 ± 0.12 | 0.438 ± 0.15
33 | AUUAAGCAAUAUUACGGCAG | -1 ± 0.11 | 0.0222 ± 0.13
34 | AUUAAGCAAUAUUACGGCGC | -0.47 ± 0.15 | 0.103 ± 0.17
35 | AUUAAGCAAUAUUACGGGAC | -3.35 ± 0.22 | -0.882 ± 0.17
36 | AUUAAGCAAUAUUACGGGCA | -0.791 ± 0.12 | -0.507 ± 0.12
37 | AUUAAGCAAUAUUACGUACA | -1.2 ± 0.1 | -0.1 ± 0.13
38 | AUUAAGCAAUAUUACGUAGC | -4.67 ± 0.45 | -1.84 ± 0.22
39 | AUUAAGCAAUAUUACGUAUG | -2.74 ± 0.25 | -1.47 ± 0.21
40 | AUUAAGCAAUAUUACGUAUU | -2.15 ± 0.13 | -1.85 ± 0.16
41 | AUUAAGCAAUAUUACGUCCC | -0.338 ± 0.18 | 0.486 ± 0.23
42 | AUUAAGCAAUAUUACGUCUU | -0.854 ± 0.091 | -0.387 ± 0.11
43 | AUUAAGCAAUAUUACGUGCG | -0.862 ± 0.091 | 0.0786 ± 0.13
44 | AUUAAGCAAUAUUACGUGUA | -2.57 ± 0.14 | -1.66 ± 0.13
45 | AUUAAGCAAUAUUACGUUGC | -3.29 ± 0.23 | -3.01 ± 0.37
46 | AUUAAGCAAUAUUACGUUGG | -3.38 ± 0.28 | -2.23 ± 0.28
47 | AUUCAGCAAUAUUACGAAAC | -1.17 ± 0.061 | -0.231 ± 0.1
48 | AUUCAGCAAUAUUACGAACA | -0.36 ± 0.099 | -0.341 ± 0.11
49 | AUUCAGCAAUAUUACGAAUA | -2.49 ± 0.23 | -1.08 ± 0.17
50 | AUUCAGCAAUAUUACGAUGA | -0.652 ± 0.14 | -0.36 ± 0.15
51 | AUUCAGCAAUAUUACGAUGG | -2.57 ± 0.16 | -0.688 ± 0.15
52 | AUUCAGCAAUAUUACGAUGU | 0.173 ± 0.082 | 0.209 ± 0.099

Row | Sequence | self-splicing fitness (ln) (30 °C) | self-splicing fitness (ln) (37 °C)
53 | AUUCAGCAAUAUUACGCAUU | -0.534 ± 0.076 | -0.427 ± 0.095
54 | AUUCAGCAAUAUUACGCCCG | -1.85 ± 0.34 | –
55 | AUUCAGCAAUAUUACGCGCG | -0.817 ± 0.12 | 0.873 ± 0.15
56 | AUUCAGCAAUAUUACGCGGA | -1.73 ± 0.19 | -0.735 ± 0.14
57 | AUUCAGCAAUAUUACGCUAG | -1.56 ± 0.13 | -0.152 ± 0.14
58 | AUUCAGCAAUAUUACGGCGC | -0.389 ± 0.099 | -0.346 ± 0.13
59 | AUUCAGCAAUAUUACGGGAU | -4.6 ± 0.27 | -2.32 ± 0.2
60 | AUUCAGCAAUAUUACGGGCC | -2.57 ± 0.33 | -1.82 ± 0.34
61 | AUUCAGCAAUAUUACGUAAG | -0.27 ± 0.069 | -0.22 ± 0.093
62 | AUUCAGCAAUAUUACGUACU | 0.26 ± 0.079 | -0.011 ± 0.095
63 | AUUCAGCAAUAUUACGUAGC | -3.44 ± 0.26 | -1.43 ± 0.19
64 | AUUCAGCAAUAUUACGUCCA | -1.19 ± 0.17 | -1.55 ± 0.23
65 | AUUCAGCAAUAUUACGUCUC | -1.97 ± 0.14 | -0.374 ± 0.13
66 | AUUCAGCAAUAUUACGUUUC | -3.75 ± 0.16 | -2.13 ± 0.24
67 | AUUGAGCAAUAUUACGACAC | -2.36 ± 0.19 | -1.45 ± 0.22
68 | AUUGAGCAAUAUUACGAUCU | -1.28 ± 0.11 | -0.471 ± 0.14
69 | AUUGAGCAAUAUUACGAUGU | -2.26 ± 0.11 | -1.41 ± 0.16
70 | AUUGAGCAAUAUUACGCACA | -1.81 ± 0.16 | -1.41 ± 0.24
71 | AUUGAGCAAUAUUACGCAUA | -3 ± 0.21 | -2.47 ± 0.24
72 | AUUGAGCAAUAUUACGCGUG | -2.28 ± 0.16 | -2.32 ± 0.23
73 | AUUGAGCAAUAUUACGCUGG | -2.76 ± 0.34 | -1.24 ± 0.25
74 | AUUGAGCAAUAUUACGGAUA | -2.15 ± 0.28 | -1.57 ± 0.25
75 | AUUGAGCAAUAUUACGGCAC | -3.48 ± 0.37 | -0.518 ± 0.33
76 | AUUGAGCAAUAUUACGGCAG | -2.56 ± 0.18 | -1.38 ± 0.27
